# Tested on: WT-mDHFR
# Assay: DHFR activity assay (NADPH turnover at 340 nm), WT-mDHFR
# Format: biochemical, murine
# Settings: 100 nM WT-mDHFR, 60 µM NADPH, 50 µM DHF, no inhibitor; absorbance 340 nm; first 2.5 min, blank subtracted; average of triplicate experiments, one SD
# Protocol: (A) Fifteen TRE sites were introduced into the mDHFR gene (2 silent and 13 substitutions) to allow for a cJun-induced transcriptional block. […] Change in absorbance at 340 nm was measured to determine the rate of NADPH turnover by (B) WT-mDHFR and (C) TRE-mDHFR with or without the substrate DHF. […] Specific activity was calculated from the linear initial rate (first 2.5 min for WT-mDHFR, first 10 min for TRE-mDHFR; +NADPH only reaction blank subtracted). Data are averages from triplicate experiments with errors shown as one standard deviation.
# Jupiter Proteo column (4-μm particle size, 90 Å pore size, 250 × 10 mm; Phenomenex) using a water:acetonitrile gradient (0.1% TFA). Peptides without a SUMO tag, were concentrated after Histrap elution and HPLC purified. […]
# or Mtx (1 µM in reaction). Reactions were initiated by the addition of DHF (50 µM in reaction plus a blank reaction with no DHF) and the absorbance at 340 nm of samples was measured using a Varian Cary 50 UV-Vis spectrophotometer. The specific activity (∆OD/minsample― ∆OD/minblank) was calculated using the following equation. Specific activity = 12.3× mg protein Library Construction and TBS Assay: Library inserts were produced using PCR fill-in reactions from synthesised primers (Sigma) with degenerate codons at the desired positions to produce the correct residue options. […]
molecule,measurement,value
"WT-mDHFR: wild-type murine dihydrofolate reductase, 6xHis-tagged (protein, UniProt P00375 2-187, looked up, 6xHis tag, wild-type murine dihydrofolate reductase, 6xHis-tagged) Dihydrofolate reductase: VRPLNCIVAVSQNMGIGKNGDLPWPPLRNEFKYFQRMTTTSSVEGKQNLVIMGRKTWFSIPEKNRPLKDRINIVLSRELKEPPRGAHFLAKSLDDALRLIEQPELASKVDMVWIVGGSSVYQEAMNQPGHLRLFVTRIMQEFESDTFFPEIDLGKYKLLPEYPGVLSEVQEEKGIKYKFEVYEKKD","Specific activity, +NADPH+DHF",0.263 ± 0.002 μmol / min / mg protein
